Data as given in patent publication US20190248902A1 (published 2019).

Assays:
Rat ASGR-1 = target: T1, Rat ASGR-1 (rat, UniProt P02706 1-284); experiment: FACS on transfected HEK 293 cells or membrane preps on beads; Y = signal at least 2x irrelevant IgG
T1 construct: Expressed on HEK 293 cells or as membrane prep on beads; cDNA GenBank NM_012503
T1 sequence: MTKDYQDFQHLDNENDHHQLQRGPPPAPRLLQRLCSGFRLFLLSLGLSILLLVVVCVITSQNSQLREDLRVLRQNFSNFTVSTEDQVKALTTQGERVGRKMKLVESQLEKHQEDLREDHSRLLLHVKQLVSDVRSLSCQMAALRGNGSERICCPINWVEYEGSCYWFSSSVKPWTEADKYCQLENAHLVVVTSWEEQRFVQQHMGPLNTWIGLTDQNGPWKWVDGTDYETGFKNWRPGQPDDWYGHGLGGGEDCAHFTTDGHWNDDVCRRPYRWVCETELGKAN
Outline: (§1)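 Antibodies at normalized concentrations bound 1 h at 4° C to HEK 293 cells expressing each antigen, then Alexa Fluor 647 anti-Fc plus 7-AAD 15 min at 4° C, flow cytometry; empty-vector cells as negative. Alternatively, species ASGR-1 membrane preps on streptavidin beads, antibody 1 h RT, Alexa Fluor 488 anti-Fc; FACS buffer with 1 mM CaCl2 throughout.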

Human ASGR-2 = target: T2, Human ASGR-2 (human, UniProt P07307 1-311); experiment: FACS on transfected HEK 293 cells; Y = signal at least 2x irrelevant IgG
T2 construct: Expressed on HEK 293 cells; cDNA GenBank NM_080913.3; also called huASGR-2; hASGR-2
T2 sequence: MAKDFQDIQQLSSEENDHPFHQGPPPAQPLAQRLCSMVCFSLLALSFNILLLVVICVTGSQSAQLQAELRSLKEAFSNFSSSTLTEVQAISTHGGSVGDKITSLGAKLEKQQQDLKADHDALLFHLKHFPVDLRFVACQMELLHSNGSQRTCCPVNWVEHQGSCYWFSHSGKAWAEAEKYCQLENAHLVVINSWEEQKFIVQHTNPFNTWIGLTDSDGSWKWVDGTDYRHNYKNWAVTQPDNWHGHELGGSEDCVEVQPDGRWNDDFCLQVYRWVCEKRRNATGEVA
Protocol: Human ASGR-1-specific, ligand competing antibody samples were tested for binding to ASGR-1 from other species (cynomologus monkey ASGR-1, mouse ASGR-1, rat ASGR-1, dog ASGR-1, and pig ASGR-1) as well as to human ASGR-2 in FACS binding assays at normalized antibody concentrations. For cell-based assays, HEK 293 cells expressing the appropriate antigen of interest were mixed with antibody sample or controls, incubated for 1 hour at 4° C., and then washed twice. Cells with bound antibody were then incubated with Alexa Fluor® 647 IgG Fc fragment-specific detection antibody and 7-AAD viability stain for 15 minutes at 4° C., washed once and resuspended in FACS buffer. Samples were analyzed using a BD Accuri™ Flow Cytometer and an Intellicyt HyperCyt Autosampler. As a negative control, supernatants and controls were also screened against HEK 293 cells transfected with empty parental vector. […] For membrane-prep binding assays, ASGR-1 species specific membrane preps were used to coat LumAvidin® microspheres (beads) and tested for binding to selected hybridoma supernatants or controls. Briefly, ASGR-1 species specific membrane preps were incubated with streptavidin-coated LumAvidin® beads for 45 minutes in the dark at room temperature and washed twice. Beads were resuspeneded in FACS buffer containing Stabilguard®. […] Samples were analyzed using an Intellicyt iQue™ Screener Platform. […]

Pig ASGR-1 = target: T3, Pig ASGR-1 (pig); experiment: FACS on transfected HEK 293 cells or membrane preps on beads; binding = signal at least 2x irrelevant IgG
T3 construct: Expressed on HEK 293 cells or as membrane prep on beads; cDNA GenBank NM_001244458
T3 chain: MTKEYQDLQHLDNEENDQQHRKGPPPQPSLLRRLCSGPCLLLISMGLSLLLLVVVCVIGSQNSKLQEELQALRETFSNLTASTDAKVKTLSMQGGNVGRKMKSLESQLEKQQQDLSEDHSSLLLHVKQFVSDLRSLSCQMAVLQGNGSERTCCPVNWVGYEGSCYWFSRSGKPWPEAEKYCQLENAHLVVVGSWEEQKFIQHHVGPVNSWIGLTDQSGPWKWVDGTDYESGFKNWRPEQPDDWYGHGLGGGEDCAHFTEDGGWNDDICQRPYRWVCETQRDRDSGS
Outline: as §1

binding result (Rat ASGR-1): binds
binding result (Human ASGR-2): binds
binding result (Pig ASGR-1): no binding
B1: 6G7 (antibody, V domains shown)
VH: QVQLVESGGGVVQPGRSLRLSCAASGFTFSSYGMHWVRQTPGKGLEWVAIISYVGKNKYYADSVKGRFTISRDNSKNTLYLQMNSLRAEDTAVYYCARRGNSYGGYGMDVWGQGTTVTVSS
VL: DIQMTQSPSSRSASVGDRVTITCQASQDISNYLNWCQQKPGKALKLLIYDASTLETGVPSRFSGSGSGTDFTFTISSVQPEDIATYYCQQYDNVPITFGQGTRLEIK
notes: Tested as hybridoma supernatant at normalized concentration
